Sequences and labels used below:
T1: Tbis1 (Thermobispora bispora DSM 43833, UniProt D6YAC6 2-309)
T1 sequence: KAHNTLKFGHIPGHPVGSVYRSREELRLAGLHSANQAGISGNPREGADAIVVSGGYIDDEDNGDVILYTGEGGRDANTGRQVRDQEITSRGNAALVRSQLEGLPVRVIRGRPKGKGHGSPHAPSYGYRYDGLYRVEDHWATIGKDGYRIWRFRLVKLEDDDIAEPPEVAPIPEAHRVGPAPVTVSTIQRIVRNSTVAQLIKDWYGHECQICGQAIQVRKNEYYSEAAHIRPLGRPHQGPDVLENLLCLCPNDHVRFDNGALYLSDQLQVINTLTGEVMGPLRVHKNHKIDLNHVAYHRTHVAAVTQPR

T2: Sco5333 (Streptomyces coelicolor, UniProt Q9ADD4 1-301)
T2 sequence: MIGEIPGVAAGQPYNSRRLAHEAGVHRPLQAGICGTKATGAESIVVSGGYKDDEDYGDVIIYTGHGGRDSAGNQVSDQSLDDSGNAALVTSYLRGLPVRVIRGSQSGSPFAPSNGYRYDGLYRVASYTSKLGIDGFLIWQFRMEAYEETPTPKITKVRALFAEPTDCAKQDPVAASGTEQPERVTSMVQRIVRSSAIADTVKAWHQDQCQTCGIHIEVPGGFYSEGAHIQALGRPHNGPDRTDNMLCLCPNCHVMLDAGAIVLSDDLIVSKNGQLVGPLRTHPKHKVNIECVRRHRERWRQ

B1: 56nt top methylated (56nt-1/4) (dsDNA)
DNA 1: CGGCGTTTCCGGGTTCCATAGGCTCCGCTCCGGCCTCTGATGACCAGGGCATCACA
DNA 2: TGTGATGCCCTGGTCATCAGAGGCCGGAGCGGAGCCTATGGAACCCGGAAACGCCG
modifications: 5mC at strand 1 pos 31
B2: 56nt non-methylated (56nt-2/4) (dsDNA)
DNA 1: CGGCGTTTCCGGGTTCCATAGGCTCCGCTCCGGCCTCTGATGACCAGGGCATCACA
DNA 2: TGTGATGCCCTGGTCATCAGAGGCCGGAGCGGAGCCTATGGAACCCGGAAACGCCG
B3: 56nt bottom methylated (56nt-2/3) (dsDNA)
DNA 1: CGGCGTTTCCGGGTTCCATAGGCTCCGCTCCGGCCTCTGATGACCAGGGCATCACA
DNA 2: TGTGATGCCCTGGTCATCAGAGGCCGGAGCGGAGCCTATGGAACCCGGAAACGCCG
modifications: 5mC at strand 2 pos 25 (Table S3; methods print 24)
B4: 55ntDcm2 fully methylated (55nt-5/7) (dsDNA)
DNA 1: ACTATAAAGATACCAGGCGTTTCCCCCTGGAAGCTCCCTCGTGCGCTCTCCTGTT
DNA 2: AACAGGAGAGCGCACGAGGGAGCTTCCAGGGGGAAACGCCTGGTATCTTTATAGT
modifications: 5mC at strand 1 pos 27 and strand 2 pos 27
B5: 55ntDcm2 top methylated (55nt-5/8) (dsDNA)
DNA 1: ACTATAAAGATACCAGGCGTTTCCCCCTGGAAGCTCCCTCGTGCGCTCTCCTGTT
DNA 2: AACAGGAGAGCGCACGAGGGAGCTTCCAGGGGGAAACGCCTGGTATCTTTATAGT
modifications: 5mC at strand 1 pos 27
B6: 55ntDcm2 bottom methylated (55nt-6/7) (dsDNA)
DNA 1: ACTATAAAGATACCAGGCGTTTCCCCCTGGAAGCTCCCTCGTGCGCTCTCCTGTT
DNA 2: AACAGGAGAGCGCACGAGGGAGCTTCCAGGGGGAAACGCCTGGTATCTTTATAGT
modifications: 5mC at strand 2 pos 27
B7: 55ntDcm2 non-methylated (55nt-6/8) (dsDNA)
DNA 1: ACTATAAAGATACCAGGCGTTTCCCCCTGGAAGCTCCCTCGTGCGCTCTCCTGTT
DNA 2: AACAGGAGAGCGCACGAGGGAGCTTCCAGGGGGAAACGCCTGGTATCTTTATAGT
B8: 55ntDcm1 non-methylated (55nt-2/4) (dsDNA)
DNA 1: GAAACCCGACAGGACTATAAAGATACCAGGCGTTTCCCCCTGGAAGCTCCCTCGT
DNA 2: ACGAGGGAGCTTCCAGGGGGAAACGCCTGGTATCTTTATAGTCCTGTCGGGTTTC
B9: 55ntDcm1 CmCCGG top (55nt-25/28) (dsDNA)
DNA 1: GAAACCCGACAGGACTATAAAGATACCCGGCGTTTCCCCCTGGAAGCTCCCTCGT
DNA 2: ACGAGGGAGCTTCCAGGGGGAAACGCCGGGTATCTTTATAGTCCTGTCGGGTTTC
modifications: 5mC at strand 1 pos 27
B10: 55ntDcm1 AmCAGG top (55nt-13/16) (dsDNA)
DNA 1: GAAACCCGACAGGACTATAAAGATAACAGGCGTTTCCCCCTGGAAGCTCCCTCGT
DNA 2: ACGAGGGAGCTTCCAGGGGGAAACGCCTGTTATCTTTATAGTCCTGTCGGGTTTC
modifications: 5mC at strand 1 pos 27
B11: 55ntDcm1 GmCAGG full (55nt-9/11) (dsDNA)
DNA 1: GAAACCCGACAGGACTATAAAGATAGCAGGCGTTTCCCCCTGGAAGCTCCCTCGT
DNA 2: ACGAGGGAGCTTCCAGGGGGAAACGCCTGCTATCTTTATAGTCCTGTCGGGTTTC
modifications: 5mC at strand 1 pos 27 and strand 2 pos 27
B12: 55ntDcm1 CmCCGG full (55nt-25/27) (dsDNA)
DNA 1: GAAACCCGACAGGACTATAAAGATACCCGGCGTTTCCCCCTGGAAGCTCCCTCGT
DNA 2: ACGAGGGAGCTTCCAGGGGGAAACGCCGGGTATCTTTATAGTCCTGTCGGGTTTC
modifications: 5mC at strand 1 pos 27 and strand 2 pos 27
B13: 55ntDcm1 CmCTGG bottom (55nt-22/23) (dsDNA)
DNA 1: GAAACCCGACAGGACTATAAAGATACCTGGCGTTTCCCCCTGGAAGCTCCCTCGT
DNA 2: ACGAGGGAGCTTCCAGGGGGAAACGCCAGGTATCTTTATAGTCCTGTCGGGTTTC
modifications: 5mC at strand 2 pos 27
B14: 55ntDcm1 CmCGGG full (55nt-29/31) (dsDNA)
DNA 1: GAAACCCGACAGGACTATAAAGATACCGGGCGTTTCCCCCTGGAAGCTCCCTCGT
DNA 2: ACGAGGGAGCTTCCAGGGGGAAACGCCCGGTATCTTTATAGTCCTGTCGGGTTTC
modifications: 5mC at strand 1 pos 27 and strand 2 pos 27
B15: 55ntDcm1 CmCTGG full (55nt-21/23) (dsDNA)
DNA 1: GAAACCCGACAGGACTATAAAGATACCTGGCGTTTCCCCCTGGAAGCTCCCTCGT
DNA 2: ACGAGGGAGCTTCCAGGGGGAAACGCCAGGTATCTTTATAGTCCTGTCGGGTTTC
modifications: 5mC at strand 1 pos 27 and strand 2 pos 27
B16: 55ntDcm1 bottom methylated (55nt-2/3) (dsDNA)
DNA 1: GAAACCCGACAGGACTATAAAGATACCAGGCGTTTCCCCCTGGAAGCTCCCTCGT
DNA 2: ACGAGGGAGCTTCCAGGGGGAAACGCCTGGTATCTTTATAGTCCTGTCGGGTTTC
modifications: 5mC at strand 2 pos 27
B17: 55ntDcm1 GmCAGG top (55nt-9/12) (dsDNA)
DNA 1: GAAACCCGACAGGACTATAAAGATAGCAGGCGTTTCCCCCTGGAAGCTCCCTCGT
DNA 2: ACGAGGGAGCTTCCAGGGGGAAACGCCTGCTATCTTTATAGTCCTGTCGGGTTTC
modifications: 5mC at strand 1 pos 27
B18: 55ntDcm1 top methylated (55nt-1/4) (dsDNA)
DNA 1: GAAACCCGACAGGACTATAAAGATACCAGGCGTTTCCCCCTGGAAGCTCCCTCGT
DNA 2: ACGAGGGAGCTTCCAGGGGGAAACGCCTGGTATCTTTATAGTCCTGTCGGGTTTC
modifications: 5mC at strand 1 pos 27
B19: 55ntDcm1 fully methylated (55nt-1/3) (dsDNA)
DNA 1: GAAACCCGACAGGACTATAAAGATACCAGGCGTTTCCCCCTGGAAGCTCCCTCGT
DNA 2: ACGAGGGAGCTTCCAGGGGGAAACGCCTGGTATCTTTATAGTCCTGTCGGGTTTC
modifications: 5mC at strand 1 pos 27 and strand 2 pos 27
B20: 55ntDcm1 TmCAGG full (55nt-17/19) (dsDNA)
DNA 1: GAAACCCGACAGGACTATAAAGATATCAGGCGTTTCCCCCTGGAAGCTCCCTCGT
DNA 2: ACGAGGGAGCTTCCAGGGGGAAACGCCTGATATCTTTATAGTCCTGTCGGGTTTC
modifications: 5mC at strand 1 pos 27 and strand 2 pos 27
B21: 55ntDcm1 AmCAGG full (55nt-13/15) (dsDNA)
DNA 1: GAAACCCGACAGGACTATAAAGATAACAGGCGTTTCCCCCTGGAAGCTCCCTCGT
DNA 2: ACGAGGGAGCTTCCAGGGGGAAACGCCTGTTATCTTTATAGTCCTGTCGGGTTTC
modifications: 5mC at strand 1 pos 27 and strand 2 pos 27
B22: 55ntDcm1 CmCGGG bottom (55nt-30/31) (dsDNA)
DNA 1: GAAACCCGACAGGACTATAAAGATACCGGGCGTTTCCCCCTGGAAGCTCCCTCGT
DNA 2: ACGAGGGAGCTTCCAGGGGGAAACGCCCGGTATCTTTATAGTCCTGTCGGGTTTC
modifications: 5mC at strand 2 pos 27
B23: 55ntDcm1 AmCAGG bottom (55nt-14/15) (dsDNA)
DNA 1: GAAACCCGACAGGACTATAAAGATAACAGGCGTTTCCCCCTGGAAGCTCCCTCGT
DNA 2: ACGAGGGAGCTTCCAGGGGGAAACGCCTGTTATCTTTATAGTCCTGTCGGGTTTC
modifications: 5mC at strand 2 pos 27
B24: 55ntDcm1 CmCTGG top (55nt-21/24) (dsDNA)
DNA 1: GAAACCCGACAGGACTATAAAGATACCTGGCGTTTCCCCCTGGAAGCTCCCTCGT
DNA 2: ACGAGGGAGCTTCCAGGGGGAAACGCCAGGTATCTTTATAGTCCTGTCGGGTTTC
modifications: 5mC at strand 1 pos 27
B25: 55ntDcm1 CmCGGG top (55nt-29/32) (dsDNA)
DNA 1: GAAACCCGACAGGACTATAAAGATACCGGGCGTTTCCCCCTGGAAGCTCCCTCGT
DNA 2: ACGAGGGAGCTTCCAGGGGGAAACGCCCGGTATCTTTATAGTCCTGTCGGGTTTC
modifications: 5mC at strand 1 pos 27
B26: 55ntDcm1 TmCAGG top (55nt-17/20) (dsDNA)
DNA 1: GAAACCCGACAGGACTATAAAGATATCAGGCGTTTCCCCCTGGAAGCTCCCTCGT
DNA 2: ACGAGGGAGCTTCCAGGGGGAAACGCCTGATATCTTTATAGTCCTGTCGGGTTTC
modifications: 5mC at strand 1 pos 27
B27: 55ntDcm1 GmCAGG bottom (55nt-10/11) (dsDNA)
DNA 1: GAAACCCGACAGGACTATAAAGATAGCAGGCGTTTCCCCCTGGAAGCTCCCTCGT
DNA 2: ACGAGGGAGCTTCCAGGGGGAAACGCCTGCTATCTTTATAGTCCTGTCGGGTTTC
modifications: 5mC at strand 2 pos 27
B28: 55ntDcm1 CmCCGG bottom (55nt-26/27) (dsDNA)
DNA 1: GAAACCCGACAGGACTATAAAGATACCCGGCGTTTCCCCCTGGAAGCTCCCTCGT
DNA 2: ACGAGGGAGCTTCCAGGGGGAAACGCCGGGTATCTTTATAGTCCTGTCGGGTTTC
modifications: 5mC at strand 2 pos 27
B29: 55ntDcm1 TmCAGG bottom (55nt-18/19) (dsDNA)
DNA 1: GAAACCCGACAGGACTATAAAGATATCAGGCGTTTCCCCCTGGAAGCTCCCTCGT
DNA 2: ACGAGGGAGCTTCCAGGGGGAAACGCCTGATATCTTTATAGTCCTGTCGGGTTTC
modifications: 5mC at strand 2 pos 27

For the first series, the target named is T1, Tbis1. Kind of series: EMSA. For orientation: Mobility shift assays separate free from complexed probe on a gel.
As to B1, the binding result was “binds”.
Same read-out and setting: to B2 belongs “no binding”; to B3, “binds”.

A further series addresses T2, Sco5333. As to the kind of experiment: EMSA.
Regarding B4, the binding result is recorded as “binds”.
The same measure, in the same setting: next, B5: “binds”; B6: “binds”.
The same measure, in the same setting: next, B7: “no binding”; B8: “no binding”.
Still for that read-out and setting: to B9 belongs “binds”.
Regarding B10, the binding result was “binds”.
The same measure, in the same setting: to B11 belongs “binds”.
On the same count and under the same terms, next, B12: “binds”.
Still for that read-out and setting: next, B13: “binds”.
In the case of B14, the binding result is reported as “binds”.
As for B15, the binding result is “binds”.
The same measure, in the same setting: next, B16: “binds”; B17: “binds”.
Same read-out and setting: next, B18: “binds”; B19: “binds”; B20: “binds”.
Still for that read-out and setting: next, B21: “binds”; B22: “binds”.
Regarding B23, the binding result is “binds”.
Turning to B24, the binding result is reported as “binds”.
The same measure, in the same setting: next, B25: “binds”; B26: “binds”; B27: “binds”.
Still for that read-out and setting: next, B28: “binds”; B29: “binds”.

The values are drawn from paper PMC4333417 (Nucleic Acids Research, 2015).
